Results from article PMC3462190, “A Peptidic Unconjugated GRP78/BiP Ligand Modulates the Unfolded Protein Response and Induces Prostate Cancer Cell Death” (PLoS ONE, 2012).

System: 22Rv.1 cells
Assay: ER-stress induced apoptosis markers, Western blot in 22Rv.1 cells
Type: cell-based
Method: Unless otherwise stated, stable transfection was carried out in 22Rv.1 or BPH-1 cells with 10 µg of plasmid DNA using FuGene 6™ (Roche Diagnostics Mannheim, Germany) Stably transfected 22Rv.1 cells were selected with 0.8 mg/ml while BPH-1 cell clones were selected with 1.2 mg/ml G418. LNCaP, PC3, DU145, PNT-2 and RWPE-1 cell clones were selected with 1 mg/ml G418. Specific downregulation of GRP78 expression was achieved by transfecting siRNA-duplexes (GRP78∶5′-[…]-3′) twice in 72 h using HiPerfect™ (Qiagen Hilden, Germany). siRNA against GFP (5′-[…]-3′) was used as a control. Western blot analysis was performed as previously described.
Figure 3 The Bag-1 peptide modulates the UPR and sensitizes 22Rv.1 cells to ER-stress. A. UPR modulation upon Bag-1 peptide overexpression. Pooled clones of 22Rv.1 cells transfected with pcDNA3.1-HA-Bag-1 68 amino acid peptide or an empty expression vector were treated with 300 nM thapsigargin (TG) for the indicated time points. Cells were lysed and subjected to Western blot analysis using the indicated antibodies or phospho-specific antibodies. B. The Bag-1 peptide sensitizes 22Rv.1 cells to ER-stress induced apoptosis. Pooled clones of 22Rv.1 transfected with the Bag-1 peptide or the empty expression vector were treated with thapsigargin (TG) or glucose-starved (GS) for 24 h. The cells were lysed and subjected to Western blot analysis using anti-PARP and caspase 4 specific antibodies. Anti-HA antibody was used to detect the HA-Bag-1 peptide. […] C. […] Pooled clones of 22Rv.1 expressing HA-tagged Bag-1 peptide or an empty expression vector were transfected with GRP78/BiP siRNA or control GFP siRNA. The cells were lysed and Western blot was carried out with anti-PARP, anti-GRP78 and anti-HA antibodies. β-actin antibody was used to determine the level of protein loaded on the gel.
Supplementary file pone.0045690.s005.tif: Figure S5 Knock-down of CHOP impairs the Bag-1 peptide-mediated increase in apoptosis. The action of the Bag-1 peptide is dependent on CHOP. Pooled clones of 22Rv.1 expressing an empty expression vector (lane 1 to 4) or an HA-tagged Bag-1 peptide (lane 5 to 8) were transfected with control GFP siRNA (lane 1–2 and 5–6) or CHOP siRNA (lane 3–4 and 7–8). After treatment with 300 nM thapsigargin (TG) for 24 h, cells were lysed and Western blot was carried out with anti-PARP, anti-CHOP and anti-HA antibodies. β-actin antibody was used to determine the level of protein loaded on the gel. (TIF) Click here for additional data file.
Supplementary file pone.0045690.s006.tif: Figure S6 Overexpression of the Bag-1 peptide increases Capase-7 cleavage and JNK expression. 22Rv.1 cells stably transfected with an empty vector control (lane 1–2) or a plasmid encoding an HA-tagged Bag-1 peptide (lane 3–4) were treated with 300 nM thapsigargin (TG) for 24 h and harvested for Western blot anaysis. Specific antibodies against JNK (Cell Signaling, Frankfurt am Main, Germany), cleaved Caspase-7 (Cell Signaling, Frankfurt am Main, Germany), HA (HAA.11 clone 16B12, Covance, Munich, Germany) or β-actin (Sigma, Steinheim, Germany) were used in the experiment. (TIF) Click here for additional data file.

B1: Bag-1 peptide: internal sequence of 68 amino acids of Bag-1 (Bag1-L 202–269), HA-tagged, expressed from pcDNA3 (peptide)
chain: TPLSALGIQDGCRVMLIGKKNSPQEEVELKKLKHLEKSVEKIADQLEELNKELTGIQQGFLPKDLQAE
modifications: also: HA tag, end not given here
In the case of B1, the “PARP cleavage, GFP siRNA control, no ER stress” value (22Rv.1 cells expressing Bag-1 peptide vs vector, no ER stress) is reported as “increase in the PARP cleavage even in the absence of ER stress”, the “PARP cleavage, GRP78/BiP knock-down” value (22Rv.1 cells transfected with GRP78/BiP siRNA, Bag-1 peptide vs vector) is reported as “no difference in the cleavage pattern was further observed” and the “caspase 4 and PARP cleavage, no ER stress” value (22Rv.1 cells, no stressor, vs vector control) is reported as “both caspase 4 and PARP cleavage was increased”. For the same molecule, the “CHOP expression and PARP cleavage” value (22Rv.1 cells, thapsigargin 300 nM 24 h, Bag-1 peptide vs vector control) was “further enhanced in the cells expressing the Bag-1 peptide”, the “JNK expression and caspase 7 cleavage” value (22Rv.1 cells, thapsigargin 300 nM 24 h, vs vector control) was “enhanced expression of JNK and caspase 7 cleavage” and the “PARP cleavage after CHOP siRNA knockdown” value (22Rv.1 cells, thapsigargin 300 nM 24 h, both vector and peptide cell lines) was “PARP cleavage was reduced in both cells line”. The “caspase 4 expression and PARP cleavage, with ER stress” value (22Rv.1 cells, thapsigargin or glucose starvation 24 h, vs vector control) was “a tremendous increase in caspase 4 expression and PARP cleavage”.
